This is an account of results in publication PMC4575080, “Biophysical Studies on BEX3, the p75^NTR-Associated Cell Death Executor, Reveal a High-Order Oligomer with Partially Folded Regions” (PLoS ONE, 2015).

The stoichiometry N is a count of units in the complex or per binding partner.

To fix the notation:
B1: death domain of p75NTR (amino acids 326 to 417) (domain or fragment, UniProt Q9Z0W1 326-417, looked up)
chain: TASGQALKGDGNLYSSLPLTKREEVEKLLNGDTWRHLAGELGYQPEHIDSFTHEACPVRALLASWGAQDSATLDALLAALRRIQRADIVESL
notes: neurotrophin receptor p75 (p75NTR), death domain, amino acids 326 to 417; UniProt Q9Z0W1 is printed in the introduction for p75NTR; For some experiments the His-tag was removed with TEV protease; also called p75NTR DD; His-p75NTR DD
B2: Brain Expressed X-linked protein 3 (BEX3) (natural protein, UniProt Q9WTZ9 1-124, looked up)
chain: MANVHQENEEMEQPLQNGQEDRPVGGGEGHQPAANNNNNNHNHNHNHHRRGQARRLAPNFRWAIPNRQMNDGLGGDGDDMEMFMEEMREIRRKLRELQLRNCLRILMGELSNHHDHHDEFCLMP
notes: BEX3 (NADE), cDNA encoding 'the mature BEX3' in pET21d; UniProt Q9WTZ9 is printed in the introduction for BEX3; High-order oligomer in native buffer; also called NADE; p75NTR-associated cell death executor

Series [1] addresses B2. Briefly: SPR; p75NTR DD (13 uM) amine-coupled to a CM5 chip (4,000 RU), Biacore X; BEX3 0.2-0.8 uM injected in Buffer A (25 mM MES pH 7.0, 150 mM NaCl, 6 mM beta-ME), 10 uL/min; global fit; apparent Kd = koff/kon. The settings on record: both partners purified.
Series [2] concerns the molecule itself. Put plainly: SDS-PAGE (SDS-resistant oligomer); refolded BEX3 on SDS-PAGE, before and after addition of 4 or 7 M urea to the sample loading buffer.

On to B1, for which, in series [1], the Kd came out at 0.55 µM.
As to B2, in series [2], the “stoichiometry N” value was found to be 2.
